Reference: US6333311

Assays:
[1] = target: Jurkat cell 105 kD lactoferrin receptor (human); assay: Scatchard analysis, 125I-labelled protein on whole Jurkat cells (species comparison)
[2] = target: HT-29 cells (human colon carcinoma cell line); assay: Scatchard analysis, 125I-labelled lactoferrin on HT-29 cells; High affinity (nM)
human lysozyme (human) [3] = target: human lysozyme (human) (UniProt P61626); assay: solid-phase ligand binding ELISA on hLZ-coated plates
human lysozyme (human) [4] = target: human lysozyme (human) (UniProt P61626); assay: solid-phase ligand binding ELISA on hLZ-coated plates; percent of the response with natural hLF
[5] = target: Jurkat cell 105 kD lactoferrin receptor (human); assay: Scatchard analysis, 125I-labelled protein on whole Jurkat cells
[6] = target: HT-29 cells (human colon carcinoma cell line); assay: Scatchard analysis, 125I-labelled lactoferrin on HT-29 cells; High affinity (nM); the cell wraps into r15 (8^a))
[7] = target: HT-29 cells (human colon carcinoma cell line); assay: Scatchard analysis, 125I-labelled lactoferrin on HT-29 cells; column Total affinity (µM); high affinity binding lost (--)
[8] = target: Jurkat cell 105 kD lactoferrin receptor (human); assay: Scatchard analysis, Jurkat cells cultured 24 h with 30 mM sodium chlorate
[9] = target: HT-29 cells (human colon carcinoma cell line); assay: Scatchard analysis, 125I-labelled lactoferrin on HT-29 cells; column Total affinity (µM); high affinity binding lost (--); one experiment
[10] = target: Jurkat cell 105 kD lactoferrin receptor (human); assay: Scatchard analysis, 125I-hLf on Jurkat cells cultured 24 h with 30 mM sodium chlorate
[11] = target: Jurkat cell 105 kD lactoferrin receptor (human); assay: Scatchard analysis, 125I-hLf on Jurkat cells cultured without sodium chlorate

Chain of bovine lactoferrin (P24627 20-708 limits assumed): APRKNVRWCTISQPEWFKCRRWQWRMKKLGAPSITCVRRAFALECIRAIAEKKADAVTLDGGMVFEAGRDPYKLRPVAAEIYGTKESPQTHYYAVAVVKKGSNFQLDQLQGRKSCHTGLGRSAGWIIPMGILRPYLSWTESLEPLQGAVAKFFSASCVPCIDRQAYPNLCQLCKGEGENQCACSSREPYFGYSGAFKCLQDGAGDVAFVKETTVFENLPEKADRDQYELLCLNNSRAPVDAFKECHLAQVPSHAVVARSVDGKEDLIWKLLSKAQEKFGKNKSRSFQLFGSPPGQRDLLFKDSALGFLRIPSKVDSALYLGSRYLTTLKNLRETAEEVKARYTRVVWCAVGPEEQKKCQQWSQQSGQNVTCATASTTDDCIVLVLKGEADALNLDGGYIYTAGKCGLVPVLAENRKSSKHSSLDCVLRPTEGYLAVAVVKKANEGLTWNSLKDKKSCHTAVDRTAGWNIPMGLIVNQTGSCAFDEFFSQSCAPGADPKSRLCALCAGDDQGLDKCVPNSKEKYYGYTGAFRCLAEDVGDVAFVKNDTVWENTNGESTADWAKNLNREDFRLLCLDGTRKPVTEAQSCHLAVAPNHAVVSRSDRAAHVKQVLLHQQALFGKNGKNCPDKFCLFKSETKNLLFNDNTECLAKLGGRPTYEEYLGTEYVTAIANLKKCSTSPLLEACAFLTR

Substance: bovine lactoferrin (from UniProt P24627) (ligand)
- Kd [1]: 60 nM
- Kd [2]: 81 nM

Substance: hLF^-2N (from UniProt P02788) (ligand)
- fold lower affinity than N-terminally intact hLF (human lysozyme (human) [3]): 3 fold lower
- Reactivity (%) (human lysozyme (human) [4]): 37.5%
- Kd [5]: 65 nM
- Kd [6]: 124 nM

Substance: hLF^-3N (from UniProt P02788) (ligand)
- Kd [7]: 1700 nM
- fold lower affinity than N-terminally intact hLF (human lysozyme (human) [3]): 17 fold lower
- Reactivity (%) (human lysozyme (human) [4]): 5.1%
- Kd [8]: 57.2 nM
- Kd [5]: 57 nM

Substance: hLF^-4N (from UniProt P02788) (ligand)
- Kd [9]: 700 nM
- Kd [5]: 41 nM

Substance: iron-saturated human lactoferrin (from UniProt P02788) (ligand)
- Kd [2]: 66 nM

Substance: murine lactoferrin (from UniProt P08071) (ligand)
- Kd [1]: 31 nM

Substance: natural human lactoferrin (from UniProt P02788) (ligand)
- Kd [10]: 62.6 nM
- Kd [1]: 60 nM
- Kd [11]: 71.1 nM
- Kd [5]: 69 nM
- Kd [2]: 74 nM

Substance: non-modified recombinant human lactoferrin (from UniProt P02788) (ligand)
- Kd [5]: 81 nM

Substance: rhLF^-5N (ligand)
- Kd [8]: 27.9 nM
- Kd [5]: 12.4 nM

Substance: transgenic hLF isolated from milk of a transgenic bovine (from UniProt P02788) (ligand)
- Kd [2]: 88 nM
